Columns and labels:
[1] = biological target: T1, recombinant human ANGPTL3 (rhANGPTL3) (SEQ ID NO:1) (human) (UniProt Q9Y5C1); experiment: cell-based or functional assay
T1 sequence: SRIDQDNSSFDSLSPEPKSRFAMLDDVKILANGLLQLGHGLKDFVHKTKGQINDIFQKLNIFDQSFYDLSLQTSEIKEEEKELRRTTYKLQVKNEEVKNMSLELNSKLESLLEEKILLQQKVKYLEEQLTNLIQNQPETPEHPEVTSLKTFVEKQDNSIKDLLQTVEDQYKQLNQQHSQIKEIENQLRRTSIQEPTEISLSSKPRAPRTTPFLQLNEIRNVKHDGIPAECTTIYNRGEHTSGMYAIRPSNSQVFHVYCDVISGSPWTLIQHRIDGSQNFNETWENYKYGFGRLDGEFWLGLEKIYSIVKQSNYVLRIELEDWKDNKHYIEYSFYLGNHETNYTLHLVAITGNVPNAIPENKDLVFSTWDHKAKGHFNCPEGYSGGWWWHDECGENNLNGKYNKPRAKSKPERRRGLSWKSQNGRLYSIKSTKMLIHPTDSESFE

[2] = biological target: T1, recombinant human ANGPTL3 (rhANGPTL3) (SEQ ID NO:1) (human); experiment: SE-UPLC of antibody mixed with rhANGPTL3 (1:3 molar ratio), run buffer pH 6.0
[3] = biological target: T1, recombinant human ANGPTL3 (rhANGPTL3) (SEQ ID NO:1) (human); experiment: SE-UPLC of antibody mixed with rhANGPTL3 (1:3 molar ratio), run buffer pH 7.4
[4] = biological target: T1, recombinant human ANGPTL3 (rhANGPTL3) (SEQ ID NO:1) (human); experiment: SE-UPLC of antibody mixed with rhANGPTL3 (1:3 molar ratio); change of mean retention time from pH 7.4 to 6.0

Chain of evinacumab sequence identical analogue (SIA) (antibody) (VH): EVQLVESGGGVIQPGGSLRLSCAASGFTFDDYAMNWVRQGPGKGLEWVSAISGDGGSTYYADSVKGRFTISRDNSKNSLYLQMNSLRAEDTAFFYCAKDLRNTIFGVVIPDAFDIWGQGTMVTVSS
Chain of evinacumab sequence identical analogue (SIA) (antibody) (VL): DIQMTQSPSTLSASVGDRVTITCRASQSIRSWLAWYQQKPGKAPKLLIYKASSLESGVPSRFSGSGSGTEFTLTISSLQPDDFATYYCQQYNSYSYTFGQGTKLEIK

Average relative IC50 (inhibition of rhANGPTL3-mediated LPL inhibition) (relative to evinacumab SIA) [1]: 1
MRT (mean retention time of immune complex), pH6.0 [2]: 3.82 min
RT (retention time of immune complex), pH6.0 [2]: 3.83 min
MRT (mean retention time of immune complex), pH7.4 [3]: 3.72 min
RT (retention time of immune complex), pH7.4 [3]: 3.72 min
MRT shift, pH7.4 -> pH6.0 [4]: 0.1 min
Substance: evinacumab sequence identical analogue (SIA) (antibody)
